Data set [1] has as its target T1, BldD (Saccharopolyspora erythraea A226?) (UniProt A4FBF9).
T1 sequence: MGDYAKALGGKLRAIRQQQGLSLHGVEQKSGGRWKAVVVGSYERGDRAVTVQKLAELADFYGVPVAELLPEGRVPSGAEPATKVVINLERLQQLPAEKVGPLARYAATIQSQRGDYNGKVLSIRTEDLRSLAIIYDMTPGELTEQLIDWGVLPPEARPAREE
Kind of data set: EMSA. The conditions noted are these: 10 mM Tris pH 7.5, 5 mM MgCl2, 50 mM EDTA (so in the source), 60 mM KCl, 10 mM DTT, 10% glycerol, 150 ng probe (legend: 10 ng), 0.5-4 uM protein; on ice 10 min; 8% ….

Data set [2] deals with T2, SACE_7301 (Saccharopolyspora erythraea A226?) (UniProt A4FQY4).
T2 sequence: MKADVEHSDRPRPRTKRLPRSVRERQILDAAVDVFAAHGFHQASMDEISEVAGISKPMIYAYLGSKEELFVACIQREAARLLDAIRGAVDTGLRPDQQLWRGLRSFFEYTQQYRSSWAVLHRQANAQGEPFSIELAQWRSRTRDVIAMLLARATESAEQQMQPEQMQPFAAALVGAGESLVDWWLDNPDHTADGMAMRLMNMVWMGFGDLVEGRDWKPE
Kind of data set: EMSA. The conditions noted are these: 10 mM Tris pH 7.5, 5 mM MgCl2, 50 mM EDTA (so in the source), 60 mM KCl, 10 mM DTT, 10% glycerol, 150 ng probe (legend: 10 ng), 0.5-4 uM protein; on ice 10 min; 8% …. (In EMSA bound probe runs differently from free probe, usually more slowly.)

“GCGAGTGTCCGTTCGAGTGGCGGCTTGCGCCCGATGCTAGTCGCGGTTGATCGGCGATCGCAGGTGCACGCGGTCGATCTTGACGGCTGGCGAGAGGTGCGGGGAGGATCTGACCGACGCGGTCCACACGTGGCACCGCGATGCTGTTGTGGGCTGGACAATCGTGCCGGTTGGTAGGATCCAGCG (double strand) [PermE promoter fragment]”: the binding result in data set [1] and in data set [2] was “binds” each time.

For the sequence “GCGTCCCCCTACTCGACGACCACGCAATGGGCGAACAATATAGGAAGGATCAAGAGGTTGACATCGCCTCGTCGAGCCAACGAACCTGTGAACATCTGCATGTTGACAAGATCAACGGCGGCTACCTACTGTGGTGGCCCAGTGACGGGTTGCCGCACATCGCGCTGGGGAGATTCTTTGAATTTCGCCCGTAGCACCGACCTGGAAAGCGAGCAAATGCTCCG (double strand) [PeryAI promoter fragment]”, the binding entry in data set [1] and in data set [2] was “binds” each time.

Source of the values: PMC4258057.
